Series [1] deals with PCSK9 gene. The series can be described thus: PCSK9 gRNA/SpCas9 editing in primary cynomolgus hepatocytes (Tables 2, 22). The class given is cell-based, cynomolgus monkey. As to conditions: SpCas9 mRNA MS002 1:1 by weight; for Cyno Primary Hepatocyte Editing % 100: 100 ng/RNA/mL; for Cyno Primary Hepatocyte Editing % 500: 500 ng/RNA/mL; for Cyno Primary Hepatocyte Editing % 2500: 2500 ng/RNA/mL.

The test system of series [2] is PCSK9 gene. The series can be described thus: PCSK9 gRNA/SpCas9 editing in primary human hepatocytes (Tables 2, 4). Type of series: cell-based. The following applies: SpCas9 mRNA MS002 1:1 by weight; for Human Primary Hepatocyte Editing % 100: 100 ng/RNA/mL; for Human Primary Hepatocyte Editing % 500: 500 ng/RNA/mL; for Human Primary Hepatocyte Editing % 2500: 2500 ng/RNA/mL. Put shortly: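 Editing at the PCSK9 site quantified by NGS of PCR amplicons from genomic DNA. Input: SpCas9 mRNA with gRNA, 1:1 by weight, transfected into primary human hepatocytes at 2500, 500 or 100 ng RNA/mL (tracr-modified guides at 2500, 1250, 500, 250 ng/mL).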

In the oligonucleotide strings, read from the 5' end, every base follows the letter of its sugar. An asterisk marks phosphorothioate; unmarked linkages are phosphodiester. Other units and linkages are bracketed, terminal groups are in braces. A string of capitals states the bases alone. m = 2'-O-methyl; r = 2'-OH (RNA)

B1: GA207: PCSK9 gRNA; protospacer GGAAATCGAGGGCAGGGTCA (SEQ ID NO: 201) (nucleic acid)
guide: GGAAAUCGAGGGCAGGGUCAGUUUUAGAGCUAGAAAUAGCAAGUUAAAAUAAGGCUAGUCCGUUAUCAACUUGAAAAAGUGGCACCGAGUCGGUGCUUUU
modifications: sugars from the 5' end m3 r94 m3, linkages s3 o93 s3 (s phosphorothioate, o phosphodiester), T or U not given here
Consider B1, for which, in series [1], the “Cyno Primary Hepatocyte Editing % 100” value was found to be 1.05%, the “Cyno Primary Hepatocyte Editing % 500” value is 2.72% and the “Cyno Primary Hepatocyte Editing % 2500” value came to 19.16%. Also, in series [2], the “Human Primary Hepatocyte Editing % 100” value came out at 0.84%, the “Human Primary Hepatocyte Editing % 500” value is 3.46% and the “Human Primary Hepatocyte Editing % 2500” value worked out at 20.79%.

B2: GA199: PCSK9 gRNA; protospacer GAAGCGGGTCCCGTCCTCCT (SEQ ID NO: 193) (nucleic acid)
guide: GAAGCGGGUCCCGUCCUCCUGUUUUAGAGCUAGAAAUAGCAAGUUAAAAUAAGGCUAGUCCGUUAUCAACUUGAAAAAGUGGCACCGAGUCGGUGCUUUU
modifications: sugars from the 5' end m3 r94 m3, linkages s3 o93 s3 (s phosphorothioate, o phosphodiester), T or U not given here
Turning to B2, in series [1], the “Cyno Primary Hepatocyte Editing % 100” value amounted to 3.07%, the “Cyno Primary Hepatocyte Editing % 500” value came to 15.11% and the “Cyno Primary Hepatocyte Editing % 2500” value was found to be 45.32%. Further, in series [2], the “Human Primary Hepatocyte Editing % 100” value was 1.17%, the “Human Primary Hepatocyte Editing % 500” value came out at 6.89% and the “Human Primary Hepatocyte Editing % 2500” value was determined as 29.95%.

B3: GA200: PCSK9 gRNA; protospacer CTAGGAGATACACCTCCACC (SEQ ID NO: 194) (nucleic acid)
guide: CUAGGAGAUACACCUCCACCGUUUUAGAGCUAGAAAUAGCAAGUUAAAAUAAGGCUAGUCCGUUAUCAACUUGAAAAAGUGGCACCGAGUCGGUGCUUUU
modifications: sugars from the 5' end m3 r94 m3, linkages s3 o93 s3 (s phosphorothioate, o phosphodiester), T or U not given here
Consider B3, for which, in series [1], the “Cyno Primary Hepatocyte Editing % 100” value was determined as 5.15%, the “Cyno Primary Hepatocyte Editing % 500” value stood at 20.51% and the “Cyno Primary Hepatocyte Editing % 2500” value came out at 54.36%. Further, in series [2], the “Human Primary Hepatocyte Editing % 100” value was determined as 3.8%, the “Human Primary Hepatocyte Editing % 500” value stood at 8.68% and the “Human Primary Hepatocyte Editing % 2500” value is recorded as 5.31%.

B4: GA204: PCSK9 gRNA; protospacer CACTCTGTATGCTGGTGTCT (SEQ ID NO: 198) (nucleic acid)
guide: CACUCUGUAUGCUGGUGUCUGUUUUAGAGCUAGAAAUAGCAAGUUAAAAUAAGGCUAGUCCGUUAUCAACUUGAAAAAGUGGCACCGAGUCGGUGCUUUU
modifications: sugars from the 5' end m3 r94 m3, linkages s3 o93 s3 (s phosphorothioate, o phosphodiester), T or U not given here
As for B4, in series [1], the “Cyno Primary Hepatocyte Editing % 100” value is reported as 0.91%, the “Cyno Primary Hepatocyte Editing % 500” value is on record as 5.27% and the “Cyno Primary Hepatocyte Editing % 2500” value was found to be 19.37%. For the same molecule, in series [2], the “Human Primary Hepatocyte Editing % 100” value worked out at 1.27%, the “Human Primary Hepatocyte Editing % 500” value was 8.98% and the “Human Primary Hepatocyte Editing % 2500” value is 24.98%.

B5: GA209: PCSK9 gRNA; protospacer CTTGGCAGTTGAGCACGCGC (SEQ ID NO: 203) (nucleic acid)
guide: CUUGGCAGUUGAGCACGCGCGUUUUAGAGCUAGAAAUAGCAAGUUAAAAUAAGGCUAGUCCGUUAUCAACUUGAAAAAGUGGCACCGAGUCGGUGCUUUU
modifications: sugars from the 5' end m3 r94 m3, linkages s3 o93 s3 (s phosphorothioate, o phosphodiester), T or U not given here
As to B5, in series [1], the “Cyno Primary Hepatocyte Editing % 100” value was found to be 3.59%, the “Cyno Primary Hepatocyte Editing % 500” value amounted to 13.96% and the “Cyno Primary Hepatocyte Editing % 2500” value came to 40.78%. Further, in series [2], the “Human Primary Hepatocyte Editing % 100” value came to 0.02%, the “Human Primary Hepatocyte Editing % 500” value stood at 8.76% and the “Human Primary Hepatocyte Editing % 2500” value is 33.23%.

B6: GA202: PCSK9 gRNA; protospacer AAGCGGGTCCCGTCCTCCTC (SEQ ID NO: 196) (nucleic acid)
guide: AAGCGGGUCCCGUCCUCCUCGUUUUAGAGCUAGAAAUAGCAAGUUAAAAUAAGGCUAGUCCGUUAUCAACUUGAAAAAGUGGCACCGAGUCGGUGCUUUU
modifications: sugars from the 5' end m3 r94 m3, linkages s3 o93 s3 (s phosphorothioate, o phosphodiester), T or U not given here
Take B6: in series [1], the “Cyno Primary Hepatocyte Editing % 100” value was found to be 1.54%, the “Cyno Primary Hepatocyte Editing % 500” value amounted to 8.91% and the “Cyno Primary Hepatocyte Editing % 2500” value came out at 31.13%. Besides, in series [2], the “Human Primary Hepatocyte Editing % 100” value stood at 2.54%, the “Human Primary Hepatocyte Editing % 500” value stood at 10.75% and the “Human Primary Hepatocyte Editing % 2500” value was found to be 34.75%.

B7: GA206: PCSK9 gRNA; protospacer CCGGTGGTCACTCTGTATGC (SEQ ID NO: 200) (nucleic acid)
guide: CCGGUGGUCACUCUGUAUGCGUUUUAGAGCUAGAAAUAGCAAGUUAAAAUAAGGCUAGUCCGUUAUCAACUUGAAAAAGUGGCACCGAGUCGGUGCUUUU
modifications: sugars from the 5' end m3 r94 m3, linkages s3 o93 s3 (s phosphorothioate, o phosphodiester), T or U not given here
In the case of B7, in series [1], the “Cyno Primary Hepatocyte Editing % 100” value is recorded as 0.84%, the “Cyno Primary Hepatocyte Editing % 500” value is recorded as 2.73% and the “Cyno Primary Hepatocyte Editing % 2500” value was determined as 16.9%. For the same molecule, in series [2], the “Human Primary Hepatocyte Editing % 100” value was 0.85%, the “Human Primary Hepatocyte Editing % 500” value was 2.7% and the “Human Primary Hepatocyte Editing % 2500” value turned out to be 20.73%.

B8: GA208: PCSK9 gRNA; protospacer CCAGCATACAGAGTGACCAC (SEQ ID NO: 202) (nucleic acid)
guide: CCAGCAUACAGAGUGACCACGUUUUAGAGCUAGAAAUAGCAAGUUAAAAUAAGGCUAGUCCGUUAUCAACUUGAAAAAGUGGCACCGAGUCGGUGCUUUU
modifications: sugars from the 5' end m3 r94 m3, linkages s3 o93 s3 (s phosphorothioate, o phosphodiester), T or U not given here
Take B8: in series [1], the “Cyno Primary Hepatocyte Editing % 100” value came out at 1.15%, the “Cyno Primary Hepatocyte Editing % 500” value is reported as 6.01% and the “Cyno Primary Hepatocyte Editing % 2500” value turned out to be 25.07%. In series [2], the “Human Primary Hepatocyte Editing % 100” value is 1.38%, the “Human Primary Hepatocyte Editing % 500” value stood at 5.72% and the “Human Primary Hepatocyte Editing % 2500” value is 25.76%.

B9: GA158: PCSK9 gRNA; protospacer GCTAGCCTTGCGTTCCGAGG (SEQ ID NO: 152) (nucleic acid)
guide: mG*mC*mU*rArGrCrCrUrUrGrCrGrUrUrCrCrGrArGrGrGrUrUrUrUrArGrArGrCrUrArGrArArArUrArGrCrArArGrUrUrArArArArUrArArGrGrCrUrArGrUrCrCrGrUrUrArUrCrArArCrUrUrGrArArArArArGrUrGrGrCrArCrCrGrArGrUrCrGrGrUrGrCrU*mU*mU*mU
In the case of B9, in series [1], the “Cyno Primary Hepatocyte Editing % 100” value was 1.04%, the “Cyno Primary Hepatocyte Editing % 500” value is given as 4.42% and the “Cyno Primary Hepatocyte Editing % 2500” value is given as 18.27%. For the same molecule, in series [2], the “Human Primary Hepatocyte Editing % 100” value is 2%, the “Human Primary Hepatocyte Editing % 500” value turned out to be 6.55% and the “Human Primary Hepatocyte Editing % 2500” value turned out to be 37.94%.

B10: GA205: PCSK9 gRNA; protospacer CCCTGCCCTCGATTTCCCGG (SEQ ID NO: 199) (nucleic acid)
guide: CCCUGCCCUCGAUUUCCCGGGUUUUAGAGCUAGAAAUAGCAAGUUAAAAUAAGGCUAGUCCGUUAUCAACUUGAAAAAGUGGCACCGAGUCGGUGCUUUU
modifications: sugars from the 5' end m3 r94 m3, linkages s3 o93 s3 (s phosphorothioate, o phosphodiester), T or U not given here
Regarding B10, in series [1], the “Cyno Primary Hepatocyte Editing % 100” value amounted to 3.01%, the “Cyno Primary Hepatocyte Editing % 500” value is 12.04% and the “Cyno Primary Hepatocyte Editing % 2500” value was found to be 36.43%. Further, in series [2], the “Human Primary Hepatocyte Editing % 100” value is reported as 3.74%, the “Human Primary Hepatocyte Editing % 500” value is 12.42% and the “Human Primary Hepatocyte Editing % 2500” value is 38.04%.

B11: GA201: PCSK9 gRNA; protospacer CAGCATACAGAGTGACCACC (SEQ ID NO: 195) (nucleic acid)
guide: CAGCAUACAGAGUGACCACCGUUUUAGAGCUAGAAAUAGCAAGUUAAAAUAAGGCUAGUCCGUUAUCAACUUGAAAAAGUGGCACCGAGUCGGUGCUUUU
modifications: sugars from the 5' end m3 r94 m3, linkages s3 o93 s3 (s phosphorothioate, o phosphodiester), T or U not given here
As to B11, in series [1], the “Cyno Primary Hepatocyte Editing % 100” value turned out to be 4.33%, the “Cyno Primary Hepatocyte Editing % 500” value was 14.37% and the “Cyno Primary Hepatocyte Editing % 2500” value came to 44.01%. For the same molecule, in series [2], the “Human Primary Hepatocyte Editing % 100” value is given as 3.29%, the “Human Primary Hepatocyte Editing % 500” value was found to be 12.92% and the “Human Primary Hepatocyte Editing % 2500” value came out at 31.51%.

B12: GA203: PCSK9 gRNA; protospacer TGACCCTGCCCTCGATTTCC (SEQ ID NO: 197) (nucleic acid)
guide: UGACCCUGCCCUCGAUUUCCGUUUUAGAGCUAGAAAUAGCAAGUUAAAAUAAGGCUAGUCCGUUAUCAACUUGAAAAAGUGGCACCGAGUCGGUGCUUUU
modifications: sugars from the 5' end m3 r94 m3, linkages s3 o93 s3 (s phosphorothioate, o phosphodiester), T or U not given here
As for B12, in series [1], the “Cyno Primary Hepatocyte Editing % 100” value came out at 3.66%, the “Cyno Primary Hepatocyte Editing % 500” value is recorded as 10.49% and the “Cyno Primary Hepatocyte Editing % 2500” value was determined as 32.85%. In series [2], the “Human Primary Hepatocyte Editing % 100” value stood at 2.57%, the “Human Primary Hepatocyte Editing % 500” value was determined as 12.76% and the “Human Primary Hepatocyte Editing % 2500” value was found to be 37.02%.

B13: GA210: PCSK9 gRNA; protospacer CTGCGCGTGCTCAACTGCCA (SEQ ID NO: 204) (nucleic acid)
guide: CUGCGCGUGCUCAACUGCCAGUUUUAGAGCUAGAAAUAGCAAGUUAAAAUAAGGCUAGUCCGUUAUCAACUUGAAAAAGUGGCACCGAGUCGGUGCUUUU
modifications: sugars from the 5' end m3 r94 m3, linkages s3 o93 s3 (s phosphorothioate, o phosphodiester), T or U not given here
As for B13, in series [1], the “Cyno Primary Hepatocyte Editing % 100” value is 4.5%, the “Cyno Primary Hepatocyte Editing % 500” value was found to be 19.72% and the “Cyno Primary Hepatocyte Editing % 2500” value worked out at 54.88%. In series [2], the “Human Primary Hepatocyte Editing % 100” value is reported as 0.04%, the “Human Primary Hepatocyte Editing % 500” value was found to be 5.86% and the “Human Primary Hepatocyte Editing % 2500” value was found to be 14.3%.

These data come from US20250152746A1, “BASE EDITING OF ANGPTL3 AND METHODS OF USING SAME FOR TREATMENT OF DISEASE” (Verve Therapeutics, Inc., priority 2020, published 2025).
